Data: patent US20200181633A1

Each substance was assayed against trimerized [change]-Tag (A/duck/Viet Nam/TG24-01/2005 (H5N1)) (assay: cell-based or functional assay).
Substance S-Protein-GCN4 (reference 2) has a hemagglutination unit (HAU), co-expression with H5-S-Tag in plants in vivo of 2 HAU and a hemagglutination unit (HAU), combination with H5-S-Tag in vitro of 0 HAU.
Work on S-Protein-pII (reference 1) yielded a hemagglutination unit (HAU), co-expression with H5-S-Tag in plants in vivo of 0 HAU and a hemagglutination unit (HAU), combination with H5-S-Tag in vitro of 0 HAU.
Work on “wild type S-Protein (from UniProt P61823 47-150)” yielded a hemagglutination unit (HAU), co-expression with H5-S-Tag in plants in vivo of 4 HAU and a hemagglutination unit (HAU), combination with H5-S-Tag in vitro of 0 HAU.
